Test results from publication PMC8470133, “Aptasensor for the Detection of Mycobacterium tuberculosis in Sputum Utilising CFP10-ESAT6 Protein as a Selective Biomarker”.

Biological target: T1, CFP10-ESAT6 antigen (Mycobacterium tuberculosis, UniProt P9WNK5;P9WNK7 2-100;2-95)
T1 chain 1: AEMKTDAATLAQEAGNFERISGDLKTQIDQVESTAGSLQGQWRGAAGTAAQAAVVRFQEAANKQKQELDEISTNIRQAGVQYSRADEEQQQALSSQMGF
T1 chain 2: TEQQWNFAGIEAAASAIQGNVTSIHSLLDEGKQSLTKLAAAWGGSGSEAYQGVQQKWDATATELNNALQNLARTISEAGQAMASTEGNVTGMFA
Assay: circular dichroism; Sensor: antigen incubated 1 h at 37 °C on aptamer electrode blocked with 0.25% BSA, PBS wash; DPV in 0.1 M PBS pH 7.4; CD buffer not given
Settings: protein: commercial; copies: 1;1; folded

B1: CapApt (CFP10-ESAT6 aptamer) (ssDNA)
DNA: GCCTGTTGTGAGCCTCCTAACCCCATCTTATACGTATATGGACTCATCTCGACCCCCGATAGGCTTGGTACATGCTTATTCTTGTCTCCC
modifications: 5'-NH2
B1: binds.
